Data: paper PMC7737156, “A 3.4-Å cryo-electron microscopy structure of the human coronavirus spike trimer computationally derived from vitrified NL63 virus particles” (QRB Discovery, 2020)

Molecular target: the molecule itself
Assay: cryo-EM structure; single-particle cryo-EM of purified, vitrified HCoV-NL63 virions without chemical fixative; spikes extracted computationally from the micrographs; refined with C3 symmetry (3.4 Å) and without (3.7 Å); virus resuspension buffer 20 mM Tris pH 8.0, 120 mM NaCl, 1 mM EDTA

B1: HCoV-NL63 coronavirus spike glycoprotein (natural protein)
chain: CNSNANLSMLQLGVPDNSSTIVTGLLPTHWFCANQSTSVYSANGFFYIDVGNHRSAFALHTGYYDANQYYIYVTNEIGLNASVTLKICKFSRNTTFDFLSNASSSFDCIVNLLFTEQLGAPLGITISGETVRLHLYNVTRTFYVPAAYKLTKLSVKCYFNYSCVFSVVNATVTVNVTTHNGRVVNYTVCDDCNGYTDNIFSVQQDGRIPNGFPFNNWFLLTNGSTLVDGVSRLYQPLRLTCLWPVPGLKSSTGFVYFNATGSDVNCNGYQHNSVVDVMRYNLNFSANSLDNLKSGVIVFKTLQYDVLFYCSNSSSGVLDTTIPFGPSSQPYYCFINSTINTTHVSTFVGILPPTVREIVVARTGQFYINGFKYFDLGFIEAVNFNVTTASATDFWTVAFATFVDVLVNVSATNIQNLLYCDSPFEKLQCEHLQFGLQDGFYSANFLDDNVLPETYVALPIYYQHTDINFTATASFGGSCYVCKPHQVNISLNGNTSVCVRTSHFSIRYIYNRVKSGSPGDSSWHIYLKSGTCPFSFSKLNNFQKFKTICFSTVEVPGSCNFPLEATWHYTSYTIVGALYVTWSEGNSITGVPYPVSGIREFSNLVLNNCTKYNIYDYVGTGIIRSSNQSLAGGITYVSNSGNLLGFKNVSTGNIFIVTPCNQPDQVAVYQQSIIGAMTAVNESRYGLQNLLQLPNFYYVSNGGNNCTTAVMTYSNFGICADGSLIPVRPRNSSDNGISAIITANLSIPSNWTTSVQVEYLQITSTPIVVDCATYVCNGNPRCKNLLKQYTSACKTIEDALRLSAHLETNDVSSMLTFDSNAFSLANVTSFGDYNLSSVLPQRNIRSSRIAGRSALEDLLFSKVVTSGLGTVDVDYKSCTKGLSIADLACAQYYNGIMVLPGVADAERMAMYTGSLIGGMVLGGLTSAAAIPFSLALQARLNYVALQTDVLQENQKILAASFNKAINNIVASFSSVNDAITQTAEAIHTVTIALNKIQDVVNQQGSALNHLTSQLRHNFQAISNSIQAIYDRLDSIQADQQVDRLITGRLAALNAFVSQVLNKYTEVRGSRRLAQQKINECVKSQSNRYGFCGNGTHIFSIVNSAPDGLLFLHTVLLPTDYKNVKAWSGICVDGIYGYVLRQPNLVLYSDNGVFRVTSRVMFQPRLPVLSDFVQIYNCNVTFVNISRVELHTVIPDYVDVNKTLQEFAQNLPKYVKPNFDLTPFNLTYLNLSSELKQLEAKTASLFQTTVELQGLIDQINSTYVDLKLLNRFENYIKWPWWVWLIISVVFVVLLSLLVFCCLSTGCCGCCNCLTSSMRGCCDCGSTKLPYYEFEKVHVQ
modifications: glycosylated; N-linked glycan density at Asn24 and Asn203 and O-linked glycan density at Ser496 newly seen here, besides the glycan sites seen before in EMD-8331
notes: Spike glycoprotein of human coronavirus NL63, membrane-anchored on native virions, pre-fusion state; model built from PDB 5SZS with residues 883-889 and 993-1000 added; Native spike on the virion, no stabilising mutations and no tags; the cited ectodomain structure PDB 5SZS is another construct (purified ectodomain made in insect cells); also called S trimer; HCoV-NL63 spike (S) trimer; source: …
B1 was tested, and the “stoichiometry N” value was 3.
